The source of these data is paper PMC5115829, “Digitor/dASCIZ Has Multiple Roles in Drosophila Development” (PLoS ONE, 2016).

The target in the assay is T1, His-tagged COOH-terminal fragment of Digitor containing the six TQT motifs (amino acids 256 to 388) (Drosophila, UniProt Q9VZU1 256-388).
T1 construct: Digitor/dASCIZ (CG14962), Drosophila, residues 256-388, holds the six TQT motifs; full length is aa 1-388; Purification is not described; 10 ug amounts are stated; also called Digitor-His; His-Digitor; source: expressed in BL21 cells (pET28a)
T1 sequence (looked up): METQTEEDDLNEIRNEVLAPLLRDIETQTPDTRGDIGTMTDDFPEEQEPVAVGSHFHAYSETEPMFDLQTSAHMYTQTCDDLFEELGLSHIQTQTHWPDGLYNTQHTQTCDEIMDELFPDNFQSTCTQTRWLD
Briefly: pull-down; MBP-Cut up or MBP alone bound to amylose resin, incubated with His-tagged Digitor in 1X PBS pH 7.4, 4 hr, 4°C; 5 washes; immunoblot with anti-His antibody. Conditions: both partners purified.

B1: full length Cut up MBP fusion protein (amino acids 1-89) (natural protein, Drosophila, UniProt Q24117 1-89, looked up)
chain: MSDRKAVIKNADMSEEMQQDAVDCATQALEKYNIEKDIAAYIKKEFDKKYNPTWHCIVGRNFGSYVTHETRHFIYFYLGQVAILLFKSG
notes: Cut up, the Dynein light chain (DYNLL1 homolog) of Drosophila, full-length cDNA encoding amino acids 1-89; Purification is not described; 10 ug amounts are stated; also called MBP-Cut-up; MBP-Cut up; source: expressed in BL21 cells (pMAL-C2X)
On to B1, for which the binding result is given as “binds”.
